Here are results for three molecules from patent publication EP4613775A1 (Eberhard Karls Universität Tübingen Medizinische Fakultät, dated 2025).

One experiment deals with T1, DEAD-box helicase 53 (human, UniProt Q86TM3 1-631).
T1 construct: Also the protein of the custom ELISA; also called DDX53; CAGE
Kind of experiment: custom ELISA.

Experiment [1] has as its target T2, DDX53 peptide HVYNYDFPRNIDVYV (human).
T2 peptide: HVYNYDFPRNIDVYV
As to the kind of experiment: peptide microarray epitope mapping (binding stretch).

Experiment [2] has as its target T3, DDX53 peptide RIFGNREMKAKAKAA (human).
T3 peptide: RIFGNREMKAKAKAA
The description is as above.

Experiment [3] concerns the target T4, DDX53 peptide SRGLDLNDVTHVYNY (human).
T4 peptide: SRGLDLNDVTHVYNY
The description is as above.

The target of experiment [4] is T5, DDX53 peptide LKSGEKRLIPKPTCR (human).
T5 peptide: LKSGEKRLIPKPTCR
The description is as above.

Experiment [5] addresses T6, DDX53 peptide EAKVRIFGNREMKAK (human).
T6 peptide: EAKVRIFGNREMKAK
The description is as above.

Experiment [6] has as its target T7, DDX53 peptide GLDLNDVTHVYNYDF (human).
T7 peptide: GLDLNDVTHVYNYDF
Described as above.

In experiment [7] the target is T8, DDX53 peptide KVRIFGNREMKAKAK (human).
T8 peptide: KVRIFGNREMKAKAK
The description is as above.

For experiment [8], the target named is T9, DDX53 peptide SGEKRLIPKPTCRFK (human).
T9 peptide: SGEKRLIPKPTCRFK
The experiment is described as above.

For another experiment, the target named is T10, aminoacylase 3 (human, UniProt Q96HD9 1-319).
T10 construct: Also the protein of the custom ELISA; also called ACY3
T10 sequence (looked up): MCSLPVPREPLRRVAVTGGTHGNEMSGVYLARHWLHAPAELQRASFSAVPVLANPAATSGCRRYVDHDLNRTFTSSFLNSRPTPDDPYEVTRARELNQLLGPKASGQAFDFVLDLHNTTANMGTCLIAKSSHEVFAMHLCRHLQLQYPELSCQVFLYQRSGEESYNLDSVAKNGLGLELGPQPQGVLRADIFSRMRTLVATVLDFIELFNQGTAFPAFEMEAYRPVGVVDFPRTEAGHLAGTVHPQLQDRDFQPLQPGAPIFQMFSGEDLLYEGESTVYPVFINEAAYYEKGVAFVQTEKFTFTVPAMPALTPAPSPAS
As to the kind of experiment: custom ELISA.

Experiment [9] has as its target T11, KIFC3 peptide EYTITVSAAEIYNEV (human).
T11 peptide: EYTITVSAAEIYNEV
As to the kind of experiment: peptide microarray epitope mapping (binding stretch).

The target in experiment [10] is T12, KIFC3 peptide AELGSWSSQEHLEWE (human).
T12 peptide: AELGSWSSQEHLEWE
The description is as above.

Experiment [11] concerns the target T13, KIFC3 peptide DWEYTITVSAAEIYN (human).
T13 peptide: DWEYTITVSAAEIYN
The description is as above.

Experiment [12] concerns the target T14, KIFC3 peptide SWSSQEHLEWEPACQ (human).
T14 peptide: SWSSQEHLEWEPACQ
The experiment is described as above.

For experiment [13], the target named is T15, KIFC3 peptide LGSWSSQEHLEWEPA (human).
T15 peptide: LGSWSSQEHLEWEPA
The description is as above.

Experiment [14] deals with T16, KIFC3 peptide ASDWEYTITVSAAEI (human).
T16 peptide: ASDWEYTITVSAAEI
Described as above.

The target in experiment [15] is T17, phosphoribosylglycinamide formyltransferase, phosphoribosylglycinamide synthetase, … (human, UniProt P22102-2 1-433).
T17 construct: Also the protein of the custom ELISA; also called GART
T17 sequence (looked up): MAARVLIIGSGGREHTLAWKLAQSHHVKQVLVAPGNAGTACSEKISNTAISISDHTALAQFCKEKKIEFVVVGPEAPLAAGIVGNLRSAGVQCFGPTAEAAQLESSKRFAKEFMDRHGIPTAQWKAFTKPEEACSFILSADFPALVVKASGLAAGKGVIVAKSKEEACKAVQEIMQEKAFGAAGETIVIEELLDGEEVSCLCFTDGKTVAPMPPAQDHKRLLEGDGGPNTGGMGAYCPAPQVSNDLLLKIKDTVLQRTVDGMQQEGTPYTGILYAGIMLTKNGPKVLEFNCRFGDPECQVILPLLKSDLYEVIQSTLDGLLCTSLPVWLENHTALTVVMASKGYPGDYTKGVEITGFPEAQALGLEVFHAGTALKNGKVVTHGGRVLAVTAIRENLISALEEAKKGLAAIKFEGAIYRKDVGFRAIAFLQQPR
As to the kind of experiment: custom ELISA.

In the next experiment the target is T18, kinesin family member C3 (human, UniProt Q9BVG8-5 1-687).
T18 construct: Also the protein of the custom ELISA; also called KIFC3
T18 sequence (looked up): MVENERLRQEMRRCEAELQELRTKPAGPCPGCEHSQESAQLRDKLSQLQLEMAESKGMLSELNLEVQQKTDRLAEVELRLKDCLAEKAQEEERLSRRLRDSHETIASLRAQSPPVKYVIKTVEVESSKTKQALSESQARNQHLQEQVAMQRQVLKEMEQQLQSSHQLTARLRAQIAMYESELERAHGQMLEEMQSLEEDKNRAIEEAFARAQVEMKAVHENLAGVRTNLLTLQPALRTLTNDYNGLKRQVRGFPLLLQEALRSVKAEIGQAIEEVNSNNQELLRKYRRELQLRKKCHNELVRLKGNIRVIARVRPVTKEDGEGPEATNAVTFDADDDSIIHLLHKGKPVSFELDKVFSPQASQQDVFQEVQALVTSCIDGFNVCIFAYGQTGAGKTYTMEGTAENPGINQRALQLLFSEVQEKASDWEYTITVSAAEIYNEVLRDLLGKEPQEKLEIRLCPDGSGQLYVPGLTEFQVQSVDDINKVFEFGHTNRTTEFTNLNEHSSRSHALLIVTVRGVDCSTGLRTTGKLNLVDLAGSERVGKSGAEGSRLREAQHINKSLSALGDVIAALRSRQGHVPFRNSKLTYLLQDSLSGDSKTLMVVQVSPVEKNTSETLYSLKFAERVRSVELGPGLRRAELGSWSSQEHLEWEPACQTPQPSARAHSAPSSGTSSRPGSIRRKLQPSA
As to the kind of experiment: custom ELISA.

The target of experiment [16] is T19, peptidylprolyl isomerase like 1 (human, UniProt Q9Y3C6 1-166).
T19 construct: Also the protein of the custom ELISA; also called PPIL1
T19 sequence (looked up): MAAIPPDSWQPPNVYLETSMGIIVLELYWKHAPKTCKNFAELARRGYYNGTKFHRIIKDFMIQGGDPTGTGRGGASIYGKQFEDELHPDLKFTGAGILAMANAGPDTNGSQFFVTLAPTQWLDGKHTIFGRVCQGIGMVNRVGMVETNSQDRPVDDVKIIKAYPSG
Kind of experiment: custom ELISA.

Experiment [17] deals with T20, magnesium dependent phosphatase 1 (human, UniProt Q86V88 1-176).
T20 construct: Also the protein of the custom ELISA; also called MDP1
As to the kind of experiment: custom ELISA.

The target in experiment [18] is T21, aldo-keto reductase family 1 member A1 (human, UniProt P14550 1-325).
T21 construct: Also the protein of the custom ELISA; also called AKR1A1
T21 sequence (looked up): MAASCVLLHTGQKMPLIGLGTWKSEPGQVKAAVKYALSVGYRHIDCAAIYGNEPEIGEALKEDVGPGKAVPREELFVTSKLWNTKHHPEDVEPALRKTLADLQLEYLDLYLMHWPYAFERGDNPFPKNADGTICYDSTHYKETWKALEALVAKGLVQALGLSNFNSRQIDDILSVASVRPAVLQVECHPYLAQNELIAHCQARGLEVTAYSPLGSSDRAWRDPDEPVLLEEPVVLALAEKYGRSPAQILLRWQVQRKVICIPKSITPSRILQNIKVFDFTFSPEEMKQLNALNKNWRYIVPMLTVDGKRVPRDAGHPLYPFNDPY
Kind of experiment: custom ELISA.

The target in experiment [19] is T22, microtubule associated scaffold protein 2 (human, UniProt Q5JR59-3 1-348).
T22 construct: Also the protein of the custom ELISA; also called MTUS2; microtubule associated tumor suppressor candidate 2
T22 sequence (looked up): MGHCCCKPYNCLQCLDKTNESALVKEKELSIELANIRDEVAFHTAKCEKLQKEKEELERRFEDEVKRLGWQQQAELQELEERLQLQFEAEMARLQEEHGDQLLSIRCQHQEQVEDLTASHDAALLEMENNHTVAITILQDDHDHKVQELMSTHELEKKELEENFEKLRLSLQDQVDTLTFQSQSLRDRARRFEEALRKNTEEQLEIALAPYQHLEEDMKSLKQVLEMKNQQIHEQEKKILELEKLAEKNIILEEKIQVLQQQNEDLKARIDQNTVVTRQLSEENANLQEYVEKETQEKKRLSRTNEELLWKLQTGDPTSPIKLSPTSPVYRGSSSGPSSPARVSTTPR
As to the kind of experiment: custom ELISA.

The target in experiment [20] is T23, AKR1A1 peptide LEYLDLYLMHWPYAF (human).
T23 peptide: LEYLDLYLMHWPYAF
As to the kind of experiment: peptide microarray epitope mapping (binding stretch).

The target of experiment [21] is T24, AKR1A1 peptide TVDGKRVPRDAGHPL (human).
T24 peptide: TVDGKRVPRDAGHPL
The description is as above.

Experiment [22] concerns the target T25, AKR1A1 peptide TLADLQLEYLDLYLM (human).
T25 peptide: TLADLQLEYLDLYLM
The experiment is described as above.

Experiment [23] deals with T26, AKR1A1 peptide YIVPMLTVDGKRVPR (human).
T26 peptide: YIVPMLTVDGKRVPR
The description is as above.

For experiment [24], the target named is T27, AKR1A1 peptide ADLQLEYLDLYLMHW (human).
T27 peptide: ADLQLEYLDLYLMHW
Described as above.

The target of experiment [25] is T28, AKR1A1 peptide LQLEYLDLYLMHWPY (human).
T28 peptide: LQLEYLDLYLMHWPY
Described as above.

Experiment [26] deals with T29, AKR1A1 peptide RKTLADLQLEYLDLY (human).
T29 peptide: RKTLADLQLEYLDLY
The experiment is described as above.

Experiment [27] concerns the target T30, AKR1A1 peptide WRYIVPMLTVDGKRV (human).
T30 peptide: WRYIVPMLTVDGKRV
The experiment is described as above.

For experiment [28], the target named is T31, AKR1A1 peptide MLTVDGKRVPRDAGH (human).
T31 peptide: MLTVDGKRVPRDAGH
Described as above.

Experiment [29] concerns the target T32, AKR1A1 peptide VPMLTVDGKRVPRDA (human).
T32 peptide: VPMLTVDGKRVPRDA
Described as above.

T1 sequence (Q86TM3 whole entry): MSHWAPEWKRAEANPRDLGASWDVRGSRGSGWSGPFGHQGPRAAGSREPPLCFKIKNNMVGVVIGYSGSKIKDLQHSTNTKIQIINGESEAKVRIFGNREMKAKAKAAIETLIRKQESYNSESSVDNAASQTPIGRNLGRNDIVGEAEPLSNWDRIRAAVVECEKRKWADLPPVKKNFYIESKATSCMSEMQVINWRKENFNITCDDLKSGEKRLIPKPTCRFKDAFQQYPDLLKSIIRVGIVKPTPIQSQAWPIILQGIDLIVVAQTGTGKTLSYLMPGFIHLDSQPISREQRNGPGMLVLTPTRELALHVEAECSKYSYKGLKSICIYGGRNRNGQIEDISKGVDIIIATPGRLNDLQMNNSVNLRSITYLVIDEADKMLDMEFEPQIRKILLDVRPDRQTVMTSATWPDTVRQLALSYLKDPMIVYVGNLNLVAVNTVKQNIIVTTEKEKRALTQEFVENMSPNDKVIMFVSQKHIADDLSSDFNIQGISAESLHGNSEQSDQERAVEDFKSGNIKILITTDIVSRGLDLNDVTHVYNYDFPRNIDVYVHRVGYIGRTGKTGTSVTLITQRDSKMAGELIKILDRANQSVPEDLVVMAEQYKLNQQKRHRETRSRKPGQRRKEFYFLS
T20 sequence (Q86V88 whole entry): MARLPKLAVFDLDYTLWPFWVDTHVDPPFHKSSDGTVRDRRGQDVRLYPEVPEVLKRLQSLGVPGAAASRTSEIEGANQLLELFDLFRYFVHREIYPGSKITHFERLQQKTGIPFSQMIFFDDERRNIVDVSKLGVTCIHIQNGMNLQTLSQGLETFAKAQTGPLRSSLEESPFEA

B1: recombinant antibody P1-B4 (antibody, V domains shown)
VH: QVQLVESGPEVKKPGASVKVSCKASGYTFTSYGISWVRQAPGQGLEWMGWISVYKSDTNDAQKFQGRVTMTTDTSTSTAYMELRSLRSDDTAVYYCARSRGIVGSTLDDNWGQGTLVTVSS
VL: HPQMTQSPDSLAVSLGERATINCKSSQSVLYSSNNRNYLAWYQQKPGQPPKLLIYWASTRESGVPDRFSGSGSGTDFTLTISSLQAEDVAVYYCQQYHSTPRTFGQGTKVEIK
notes: also called clone P1-B4
Take B1: the binding result (with DEAD-box helicase 53; in experiment [1]; in [2]; in experiment [3]; in experiment [4]; in experiment [5]) was “binds” each time. Further, the binding result in experiment [6], in experiment [7] and in [8] was “binds” in each case.

B2: recombinant antibody P1-F6 (antibody, V domains shown)
VH: QVPLKESGPALVKPTRTLTLTCTFSGFSLSTNGVSVGWIRQPPGKALDWLALIYWNDDKRYSPSLKNRLTITKDTSKNLVVLRMTNMDPVDTATYYCAHRPIASSRDGFDYWGQGTLVTVSS
VL: DIQMTQFPSTLSASVGETVTISCRASQSVSGWLAWYQQKPGKAPKLLMYKASALENGVPSRFSGSGSGTEFTLTISSLQPDDFATYYCQQYNGFPFTFGPGTKVDIN
notes: also called clone P1-F6
On to B2, for which the binding result (with aminoacylase 3; in [9]; in experiment [10]; in experiment [11]; in experiment [12]; in experiment [13]) was “binds” throughout. Further, the binding result in [14] is listed as “binds”.

B3: recombinant antibody P3-F1 (antibody, V domains shown)
VH: QVQLVESGPTLVKPTQTLTVTCTFSGFSLNTRAVGVGWIRQPPGGALEWLALVYWDDDKRYSPSLKNRLTITKDTSRNQVVLTLTNVAPVDTGTYYCSHHRLTDGRLRWGQGTLVTVSS
VL: QVQLVQSPGTLSLSPGERATLSCRASQSITSSYLAWYQQKFGQAPRLLIYRASNRATGIPDRFSGSGSGTDFTLTISSLESEDFAVYYCQQYDTSPWTFGQGTKVEIK
notes: also called clone P3-F1
On to B3, for which the binding result (in [15]; with kinesin family member C3; in experiment [16]; in [17]; in the experiment with DEAD-box helicase 53; with aminoacylase 3) was “no binding” throughout. Also, the binding result in [18] was “binds”; in experiment [19], “no binding”; in experiment [20] it was “binds”; in experiment [21], “binds”; in experiment [22], “binds”; in experiment [23] it was “binds”. Besides, the binding result in experiment [24], in experiment [25], in experiment [26], in [27], in experiment [28] and in [29] was “binds” in each case.
